According to patent publication US20120201826A1:

Target: recombinant human RANTES (huRANTES, Peprotech) (human) (UniProt P13501)
Assay: cell-based or functional assay

Sequence of recombinant human RANTES (huRANTES, Peprotech) (human) (P13501 24-91): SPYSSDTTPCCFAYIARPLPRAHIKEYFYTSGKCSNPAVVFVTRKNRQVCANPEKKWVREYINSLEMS

B1: A5 scFv (scFv, part only; not given: linker and tags, part only)
scFv, part: QVQLVQSGAEVKKPGASVKVSCKVSGYALSELSIHWVRQAPGKGLEWMSYIDPEDGEPIYAQKFQGRATMTEDSSTDTAYMEMGSLTSDDTAVYYCAGVTGSTSDAFDLWGRGTLVTVSSSYVLTQDPSVSVAPGQTARITCGGANLWGLGVHWYQQKSGQAPVLVVSDNSDRASGIPERFSGSNSGTTATLTLSRVEVGDEADYYCQVWDSSSDHWVFGGRTKLTVL
  Chemotaxis IC50 (nM); L1.2 cells expressing hCCR5, 1 nM huRANTES; scFv format: 21 nM
